In patent EP4786494A1:
Positions count from the first letter of the chain named. Values belong to the binder of their own block, whether it stands above or below them.

Experiments:
[1] = molecular target: human FGFR2-his protein (huFGFR2-his) (human); test: BLI epitope binning on FGFR2-his (HISK sensor), 200 nM antibodies; competitor: huA1B2-3
[2] = molecular target: human FGFR2-his protein (huFGFR2-his) (human); test: BLI epitope binning on FGFR2-his (HISK sensor), 200 nM antibodies; competitor: huG11B8-5
[3] = molecular target: human FGFR2-his protein (huFGFR2-his) (human); test: BLI epitope binning on FGFR2-his (HISK sensor), 200 nM antibodies; competitor: bemarituzumab
[4] = molecular target: human FGFR2 on cells (KATO-III gastric cancer cells; SNU-16 cells; Ba/F3 cells engineered to express human FGFR2b) (human) (UniProt P21802); test: flow cytometry on KATO-III cells expressing human FGFR2

Chain of human FGFR2-his protein (huFGFR2-his) (human) (chain, as listed by the source limits assumed): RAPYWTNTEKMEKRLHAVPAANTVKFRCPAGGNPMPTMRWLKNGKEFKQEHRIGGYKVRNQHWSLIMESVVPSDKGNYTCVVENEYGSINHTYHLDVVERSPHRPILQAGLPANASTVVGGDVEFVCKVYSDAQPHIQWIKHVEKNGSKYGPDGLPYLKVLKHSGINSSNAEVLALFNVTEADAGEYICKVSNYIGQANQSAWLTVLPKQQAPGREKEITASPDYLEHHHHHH

B1: humanized monoclonal antibody huA1B2-3 (antibody, human IgG1, kappa, V domains shown)
VH: EVQLVQSGAEVKKPGATVKISCKASGFNIKDYYMHWVQQAPGKGLEWMGRIDPEDGDTEYAEKFQGRVTITADTSTNTAYMELSSLRSEDTAVYYCTTYYYVSTYEDYWGQGTTVTVSS
VL: EIVLTQSPATLSLSPGERATLSCRASSSVSHMHWYQQKPGQAPKLLIYSTSNLASGVPARFSGSGSGTDYTLTISSLEPEDFAVYYCHHWSSWTFGGGTKVEIKR
epitope binning value (%), not given [1]: 10.2%
epitope binning value (%), not given [2]: 42.6%
epitope binning value (%), not given [3]: 95.7%

B4: antibody A1B2 (murine chimeric anti-FGFR2 antibody) (antibody, human IgG1, kappa, V domains shown)
VH: EVQLQQSGAELVRPGASVKLSCTASGFNIKDYYMHWVKQRPEQGLEWIGRIDPEDGDTEYAPKFQGKATMTADTSSNTAYLQLSSLTSEDTAVYYCTTYYYVSTYEDYWGQGTTLTVSS
VL: QIVLTQSPAIMSASLGEEITLTCSASSSVSHMHWYQQKSGTSPKLLIYSTSNLASGVPSRFSGSGSGTFYSLTISSVEAEDAADYYCHHWSSWTFGGGTKLEIKR
EC50 [4]: 0.336 nM

B5: antibody F6B6 (murine chimeric anti-FGFR2 antibody) (antibody, human IgG1, kappa, V domains shown)
VH: QVQLKQSGPGLVQPSQSLSITCTVSGFSLTNYGVHWVRQSPGKGLEWLGVIWSDGSTDYDAAFISRLSISTDNSKSQVFFKMNSLQAADTAIYYCARKGDYDYDNYAMDYWGQGTSVTVSS
VL: DVVITQSPATLSVTPGDSVSLSCRASQSISNNLHWYQQKSHESPRLLIKYASQSISGIPSRFSGSGSGTDFTLSINSVETEDFGMYFCQQSNSWPLTFGAGTKLELKR
EC50 [4]: 14.4 nM

Other lines, results leading:

epitope binning value (%), not given [1]: 106%
epitope binning value (%), not given [2]: 36.8%
epitope binning value (%), not given [3]: 7.8%
B2: bemarituzumab (antibody, human IgG1, kappa, V domains shown)
VH: QVQLVQSGAEVKKPGSSVKVSCKASGYIFTTYNVHWVRQAPGQGLEWIGSIYPDNGDTSYNQNFKGRATITADKSTSTAYMELSSLRSEDTAVYYCARGDFAYWGQGTLVTVSS
VL: DIQMTQSPSSLSASVGDRVTITCKASQGVSNDVAWYQQKPGKAPKLLIYSASYRYTGVPSRFSGSGSGTDFTFTISSLQPEDIATYYCQQHSTTPYTFGQGTKLEIKR

EC50 [4]: 7.37 nM
B3: antibody D12D8 (murine chimeric anti-FGFR2 antibody) (antibody, human IgG1, kappa, V domains shown)
VH: QVQLQQSGAELARPGASVKLSCKASGYTFTNYGISWVKQRTGQGLEWIGEIYPRSGNTYYNEKFKGKATLTADKSSSTAYMELRSLTSEDSAVYFCARGDYSNSDYWGQGTTLTVSS
VL: DIQMTQTTSSLSASLGDRVTISCRASQDITDHLNWYQQKPDGTVKLLIYYTSRLHSGVPSRFSGSGSGTDYSLTISNLEQEDIATYFCQQGNTLPRTFGGGTKLEIKR

EC50 [4]: 0.949 nM
B6: antibody G11B8 (murine chimeric anti-FGFR2 antibody) (antibody, human IgG1, kappa, V domains shown)
VH: EVQLQQSGPELVKPGASVKIPCKASGYTFTDYNMDWVKQSHGKSLEWIGDINPKNGETFYNQKFKGKATLTVDRSSNTAYMELRSLTSEDTAVYFCAKRDLNWYFDYWGQGTTLTVSS
VL: DIQMTQSSSYLSVSLGGRVTITCKASDHINNWLAWYQQKPGNAPRLLISGATSLETGVPSRFSGSGSGKDYTLSITSLQTEDVATYYCQQYWSTPWTFGGGTKLEIKR

EC50 [4]: 1.09 nM
B7: antibody H3F7-a (murine chimeric anti-FGFR2 antibody) (antibody, human IgG1, kappa, V domains shown)
VH: B6 VH with N77S
VL: B6 VL
